Data on seven molecules can be found in PMC7320144 (Nature Communications, 2020).

In general, stoichiometry N refers to the number of molecules, sites or subunits per partner or assembly. Usually EC50 stands for the concentration needed to bring the measured effect to its halfway point. The low end stands for higher potency in that assay, the high end for lower potency in that assay. The Km is the substrate concentration at which the rate is half of its maximum. As a reminder, the kcat is the number of substrate molecules converted per active site and unit of time at saturation. As usually defined, the kcat/Km is the second-order rate constant that governs catalysis at low substrate concentration.

Data set [1] concerns the target PfISN1 D172N-ΔN30 (Plasmodium falciparum). Description: crystal structure.
The target in data set [2] is T1, PfISN1 (IMP-specific nucleotidase 1) (Plasmodium falciparum, UniProt A0A144A134).
T1 construct: gene ISN1; wild-type, full-length
Description: crystal structure; enzyme activation at pH […]. It is filed as biochemical.

Data set [3] concerns O=[N+]([O-])c1ccc(OP(=O)(O)O)cc1. Kind of data set: purified protein. The conditions noted are these: Mg2+; 25.0 °C. It is filed as biochemical, Plasmodium falciparum.
Data set [4] deals with PfISN1 D172N (full-length inactive mutant) (Plasmodium falciparum). Kind of data set: crystal structure.
Data set [5] deals with the molecule itself. Kind of data set: crystal structure; vapour diffusion in sitting drops at 292 K; protein 13 mg/mL in 50 mM Tris-HCl pH 8.0, 100 mM NaCl (or 50 mM MES pH 5.0, 100 mM NaCl); apo, ATP-bound or IMP-Mg2+-bound forms; homo-tetramer.

Take “PfISN1 D172N-ΔN30 (from UniProt A0A144A134 31-444) (domain or fragment)”: the stoichiometry N in data set [1] turned out to be 4.
In data set [2], `Nc1ncnc2c1ncn2[C@@H]1O[C@H](COP(=O)(O)OP(=O)(O)OP(=O)(O)O)[C@@H](O)[C@H]1O` [ATP] gave an EC50 of 3.8 ± 0.7 mM.
Turning to “PfISN1 (IMP-specific nucleotidase 1) (Plasmodium falciparum 3D7; D172N)”, in data set [3], the Michaelis constant (Km) amounted to 1510 ± 150 µM, the kcat came out at 0.28 ± 0.01 s⁻¹ and the kcat/Km came out at 190 ± 20 M⁻¹ s⁻¹.
For “PfISN1 D172N (full-length inactive mutant) (from UniProt A0A144A134 1-444) (enzyme)”, in data set [4], the stoichiometry N was determined as 4.

B1: PfISN1-ΔN59 (domain or fragment, Plasmodium falciparum, UniProt A0A144A134 60-444, looked up)
chain: DSLIMFLVEIFRSLFVSNCIDKNIDNVLLSIEEMFIDHYYNPQHSRLKYLIDDVGIFFTKLPITKAFHTYNKKYRITKRLYAPPTFNEVRHILNLAQILSLEEGLDLLTFDADETLYPDGHDFNDEVLASYISCLLKKMNIAIVTAASYNNDAEKYQKRLENLLKYFSKHNIKDGSYKNFYVMGGESNYLFKCNEEATLYSVPENEWRHYKKFVDYDTVQEILNISEKCLEKVIKDFGLCAQIQRKEKSIGLVPNKIPSLNIKNEQKNYMIKYEVLEEAVIRIKKEIIKNKITAPYCAFNGGQDLWVDVGNKAEGLLILQKLLKIQKKKCCHIGDQFLHSGNDFPTRFCSLTLWVSNPQETKACLKSIMHLNIKSFIPEVLYENQ
notes: PfISN1 (444 amino acids, gene PF3D7_1206100) with the N-terminal regulatory domain (NTRD, M1 to K59) deleted; limits worked out from the name ΔN59 and the printed domain limits; Co-crystallized with IMP, IMP not observed in the structure; Construct details are in Supplementary Methods; also called ∆N59-truncated PfISN1; source: E. coli BL21-CodonPlus (DE3)-RIL (structural studies), purified
Turning to B1, the “stoichiometry N” value in data set [5] worked out at 4.

B2: Plasmodium falciparum IMP-specific nucleotidase 1 (PfISN1), wild type (enzyme, UniProt A0A144A134 1-444, looked up)
chain: MKNLDINTFDNIEDIPLGSSEQDPYDFFTLSDRNVMNSDMKKNIVQWNSRYSYNQLKNKDSLIMFLVEIFRSLFVSNCIDKNIDNVLLSIEEMFIDHYYNPQHSRLKYLIDDVGIFFTKLPITKAFHTYNKKYRITKRLYAPPTFNEVRHILNLAQILSLEEGLDLLTFDADETLYPDGHDFNDEVLASYISCLLKKMNIAIVTAASYNNDAEKYQKRLENLLKYFSKHNIKDGSYKNFYVMGGESNYLFKCNEEATLYSVPENEWRHYKKFVDYDTVQEILNISEKCLEKVIKDFGLCAQIQRKEKSIGLVPNKIPSLNIKNEQKNYMIKYEVLEEAVIRIKKEIIKNKITAPYCAFNGGQDLWVDVGNKAEGLLILQKLLKIQKKKCCHIGDQFLHSGNDFPTRFCSLTLWVSNPQETKACLKSIMHLNIKSFIPEVLYENQ
notes: IMP-specific 5'-nucleotidase 1 (ISN1, EC 3.1.3.99) of Plasmodium falciparum, 444 amino acids, gene PF3D7_1206100; domains M1-K59 (NTRD), D60-T143 (OD), F144-K270 and K371-Q444 (CD), K271-N370 (cap); Cloned into pET-21bN; details of constructs and of purification for structural studies are in Supplementary Methods; A selenomethionine derivative (E. coli B834 (DE3)) was used for phasing; also …
B2: the “stoichiometry N” value in data set [5] is 4.

B3: PfISN1-ΔC10 (domain or fragment, Plasmodium falciparum, UniProt A0A144A134 1-434, looked up)
chain: MKNLDINTFDNIEDIPLGSSEQDPYDFFTLSDRNVMNSDMKKNIVQWNSRYSYNQLKNKDSLIMFLVEIFRSLFVSNCIDKNIDNVLLSIEEMFIDHYYNPQHSRLKYLIDDVGIFFTKLPITKAFHTYNKKYRITKRLYAPPTFNEVRHILNLAQILSLEEGLDLLTFDADETLYPDGHDFNDEVLASYISCLLKKMNIAIVTAASYNNDAEKYQKRLENLLKYFSKHNIKDGSYKNFYVMGGESNYLFKCNEEATLYSVPENEWRHYKKFVDYDTVQEILNISEKCLEKVIKDFGLCAQIQRKEKSIGLVPNKIPSLNIKNEQKNYMIKYEVLEEAVIRIKKEIIKNKITAPYCAFNGGQDLWVDVGNKAEGLLILQKLLKIQKKKCCHIGDQFLHSGNDFPTRFCSLTLWVSNPQETKACLKSIMHLNIKS
notes: PfISN1 (444 amino acids, gene PF3D7_1206100) truncated by ten residues at the C-terminus; Construct details are in Supplementary Methods; also called ∆C10-truncated PfISN1; source: E. coli BL21-CodonPlus (DE3)-RIL (structural studies), purified
With B3, the “stoichiometry N” value in data set [5] worked out at 4.
